From paper PMC7267768, “Three kinds of treatment with Homoharringtonine, Hydroxychloroquine or shRNA and their combination against coronavirus PEDV in vitro” (Virology Journal, 2020)

Target: T1, HR1 peptide of the PEDV spike glycoprotein (optimal focused HR1 domain) (porcine epidemic diarrhea virus (PEDV))
T1 construct: Spike glycoprotein of porcine epidemic diarrhea virus (PEDV), heptad repeat 1; numbers count on: GenBank ALS35469.1; source: synthetic peptide (China Peptides)
T1 peptide: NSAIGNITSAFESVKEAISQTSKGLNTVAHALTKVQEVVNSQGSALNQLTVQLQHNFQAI
Test: SEC; HR1 and tHR2 mixed, each at 15 uM, incubated 2 h; Superdex G75, 20 mM Tris-HCl pH 8.0; mass estimated against protein standards
Details: both partners purified

B1: truncated HR2 peptide tHR2 of the PEDV spike glycoprotein (1278-1316, 39Aa) (peptide)
peptide: LTGEIADLEQRSESLRNTTEELRSLINNINNTLVDLEWL
notes: Spike glycoprotein of porcine epidemic diarrhea virus (PEDV), truncated heptad repeat 2, residues 1278-1316 (39 residues); the predicted HR2 domain is 1263-1314; numbers count on: GenBank ALS35469.1; source: synthetic peptide (China Peptides)
stoichiometry N: ~1 tHR2 per HR1 (3:3)
